Source: the DeepSol protein solubility set

Assay: soluble on expression in E. coli; label from the status in PepcDB or PDB records
For “MRSQPTVSVIVPARNEAGNIAAAVERLPELGAETELIFVEGHSRDQTWETIEQTVAEYQGPLKLLACRQTGKGKADAVRLGFDKASGDILMILDADLTVQPEDLGHFYRAIASGRGEFINGSRLVYPRSRLAMPGLNTLANRTFALIFSFLLGQPLKDTLCGTKVLWKTDYDRVAAGRKYFGDFDPFGDFDLLFGAAKLGLEIVEVPVRYQERSYGSSNIAHVREGLILARMCLYAAGKLKFPLEHHHHHH”, the “soluble on expression in E. coli” value was “not soluble”.
For “MRSVKVYEETWPLHTPFVIARGSRSEAHVVVVELEEEDVKGIGECTPYPRYGESDASVMAQIMSIVPQLENGLTREALQKLLPAGAARNAVDSALWDLQARQRQQSLAGLLGVTLAPVFTTAQTVVIGTPEQMAASAAALWEKGATLLKIKLDARLISERMVAIRSAVPEATLIVDANESWRPEGLAARCQLLADLNVAMLEQPLPAQDDAALENFIHPLPICADESCHTRSSLKALTGRYDMINIKLDKTGGLTEALALATEAREQGFGLMLGCMLCTSRAISAALPLMPQVSFADLDGPTWLAVDVEPALRFTTGQLHL”, the “soluble on expression in E. coli” value was “not soluble”.
With “MRSYFLIFILILLLEIREVWSWKAPYLRDRPRGLGLLQLPTGISDERSGPFLPGLYIAGNKVNQKPQTVPDVHLPGQPADFTGRSAFNPFTHMVSAVYAEDLSDGWGAGMAVNGVNGHGLNVRKNFDSYADVPLNLNDGMYQPFIAAATVGGEYDLSKMREVSGSLDLPIPGVNELFDLNARILVKTFLLHNSAIEFPLTLSDPNERAPYNFRYAVWAPDRHMAYGHVVPNVNPYVIGKDKIMERLMQNRLNPTMVG” the “soluble on expression in E. coli” value was “not soluble”.
For “MRTFDLTAALGDRANQPEISRLLVAQLMTSNNEDTRKLRRAQEREQTQELNELAHRLAGMASLIHAHAVERACHQLEIACGESSVRKLADAVDDLVTALGELQCELHDWMTMTAPQGTAKS”, the “soluble on expression in E. coli” value was “not soluble”.
With “MRTNAFEAVARYVYPSLRRRLVEILRERGLTQIQIAELLHITQSAVSRYLRMNRGALIEVEKFQDIDEKLKGLADTIVREKPDEYYIHGELVKIAVEMLGKGYVCSFHSKVDPEIDPKLCRICIETFGLEHHHHHH” the “soluble on expression in E. coli” value was “soluble”.
For “MRVDIVPVGDVPAHVKRQASSSLRSVYDCEVVVASEQDVPTAAYDEARSQYRAAEFIDTATRATSGDKTIAITPHDLFYRRRNYVFGLAYLDGRGCVVSTYRLQTSSDGGFSNRSSSDVFDDRVRKEVVHELGHTLGLEHCDNNRCAMNFSPTVREVDRKEENLCGSCQRTVFLEHHHHHH”, the “soluble on expression in E. coli” value was “not soluble”.
With “MRVIVTEYQPAWVEQFEEEAQALKQILKENCLKVEHIGSTSVPNLAAKPIIDFLVIVEEIEKVDLLQWEFERIGYEYMGEFGLSGRRYLRKGPIKRTHHVHIYQFDNTQEILRHLAFRNYLRENPAIATTYGTLKKQLAQAHPDSIDKYMDGKDAFIKKIEKEALKKYWE” the “soluble on expression in E. coli” value was “soluble”.
In the case of “MRVKHFELLTDEGKTFTHVDLYGKYTILFFFPKAGTSGCTREAVEFSRENFEKAQVVGISRDSVEALKRFKEKNDLKVTLLSDPEGILHEFFNVLENGKTVRSTFLIDRWGFVRKEWRRVKVEGHVQEVKEALDRLIEEDLSLNKHIEWRRARRALKKDRVPREELELLIKAAHLAPSCMNNQPWRFVVVDEEELLKKIHEALPGGNYWMKNAPALIAVHSKKDFDCALPDNRDYFLFDTGLAVGNLLVQATQMGLVAHPVAGYDPVKVKEILKIPEDHVLITLIAVGYLGDESELSEKHRELERSERVRKELSEIVRWNL”, the “soluble on expression in E. coli” value is reported as “soluble”.
With “MRVVALVPGGIGDQILFFPTLDDLKRYYPNAQLDVVVEPRSKAAYRVSKSVNDILTFDYKDRNSLADWGNLVGTIRDREYDVVITVGQSWLVGLFLWLTGIPTRIGYQGKGRSFLTKTVPFKPSQYAAAVYHDLLAPIGITTPTPELAVNVPKPDIDWANSEQKRLGVNETGYVLIYGGSSWVSQPQALETIYPAENWQEIIQDFRQKQPDLPVVVIQGPDDEQFVRSLRDYSLDIKVTSPDNVGKLTAMIAGANLMLTTDSAPLHLSVAVQTYTIALFGSTDPVKLLPNSDKLLGIKSSTGRVADILPKAVLEKVWGGLEHHHHHH” the “soluble on expression in E. coli” value was “not soluble”.
For “MRVYGRKILEEALRNNVPIKKVFFQKMKNPGSYFLSLVKEVEKRGIKYSFESEERLKNLSGTKKHQGVVFDIGEYRYSSVEEILEAKTPPLIVLLDQIQDPHNLGAIVRTSVGAGANGIIIPKDKSVKVTETVVKVSAGTVFRARIAVVTNLARTIEELKEKGVWTYASDIDGTPIYEEDFTFPTAFVFGNEGEGIRRLVREKCDRVVTIPMENDIDSLNVSVSVGVVLFEAVRQRRMKGAG”, the “soluble on expression in E. coli” value was “soluble”.
In the case of “MRWKKINITINNVEMILVAAIIIDVPPVVDLCVKTMIHNINSTNCIRMFNFSKRYGIKKLYNASMSEIINNITAVTSDPEFGKLSKDELTTILSHENVNVNHEDVTL”, the “soluble on expression in E. coli” value is reported as “not soluble”.
For “MRWRADFLSAWAEALLRKAGADEPSAKAVAWALVEADLRGVGSHGLLRLPVYVRRLEAGLVNPSPTLPLEERGPVALLDGEHGFGPRVALKAVEAAQSLARRHGLGAVGVRRSTHFGMAGLYAEKLAREGFVAWVTTNAEPDVVPFGGREKALGTNPLAFAAPAPQGILVADLATSESAMGKVFLAREKGERIPPSWGVDREGSPTDDPHRVYALRPLGGPKGYALALLVEVLSGVLTGAGVAHGIGRMYDEWDRPQDVGHFLLALDPGRFVGKEAFLERMGALWQALKATPPAPGHEEVFLPGELEARRRERALAEGMALPERVVAELKALGERYGVPWRDDA”, the “soluble on expression in E. coli” value was “soluble”.
With “MRYNEKELQALSRQPAEMAAELGMRGPKKGSVLKRRLVKLVVNFLFYFRTDEAEPVGALLLERCRVVREEPGTFSISFIEDPERKYHFECSSEEQCQEWMEALRRASYEFMRRSLIFYRNEIRKVTGKDPLEQFGISEEARFQLSGLQA” the “soluble on expression in E. coli” value was “soluble”.
In the case of “MRYSLKQLAVFDAVADCGSVSQAADKLALTQSATSMSLAQLEKMLGRPLFERQGKQMALTHWGMWLRPKAKRLLQDAQQIEMGFYDQHLLSGEIRLGASQTPAEHLVPDLISIIDSDFPEIRISLGVKSTKGVIEGVLDYKYDLGIIEGRCDDNRIYQEVWCRDHLTIVASAHHPFAKRESVSLAQLEQAKWVLREQGAGTRNIFDSVIHPLIPDLDVWREYEHVPVLRTLVANGPYLTCLPYLDVERFIESGLLVALNVPELNMERTLSFIWRADMEENPLAECIKREGLRMMKGKPSIL”, the “soluble on expression in E. coli” value is reported as “not soluble”.
In the case of “MSAAEGAVVFSEEKEALVLKSWAIMKKDSANLGLRFFLKIFEIAPSARQMFPFLRDSDVPLETNPKLKTHAVSVFVMTCEAAAQLRKAGKITVRETTLKRLGGTHLKYGVADGHFEVTRFALLETIKEALPADMWGPEMRNAWGEAYDQLVAAIKQEMKPAE”, the “soluble on expression in E. coli” value is reported as “soluble”.
In the case of “MSAAPGTISPPARELKTSAICGYLHRIEVRSIGLITRRRYWFALCDSTPYLYWYKDSDDIKCIGRVSLSGAAFTYDPREKGRFEIHSNNEVIALECSSDKQRNEWMKALQSTRKRSWKATKSKSDSSLDISSLTGRNSSSVLEECSSPSPVPPPRSPKPKKRTQFLTEEETDAETSSDVPHSSEETAEVVEDTDNTKIPAEGSATEWYLNPNGQLNERSLQMPKTIESPETVLKRLADQSIEAPFRAIRRNLSTWSRSRQNTSDEPVVGSRKGTVSSVDLTPEEKVIELSDKVSSLEEVVDSLRAALLLAQRNNEALQKIEDMGDNKEEMREYILEKERQVTELHISNSMNARRVRDLEDQNVRLEDTINDLQQSVEAFRESLRTKEELILRMCEEENREDLLGSISERSSNIPADANGLVSDVEVPEGILVDVSSVDCEEATRKVLDEENVRDIGELQDLVEGYRTQNQFLNAEIVQLHAITQSLEDREKKLIRQNFDLEACYYQLKSRYLMVLNHFKSPTKPGKIMEPGVLKELLEESARTPRESQQNLTDQLGFYKKDDFSESDDLLDTATFYMKKAGDVVEATKLEQSEEYMKWLQSWDAFLVNNTVSRQTAIMSSPDLKTLIRTGVPPAYRGRVWKIIVTHWVKDKQAELGNGYYQSMLRKAGTKKQDGSYDAAIKQIDLDLARTLPTNKLFDEPDSANIEKLRNVLYAFRYHNSHVGYCQGLNRLAAIALLNLDEQDSFWFLVACVEHLQPEGYYTSSLIGAVADQKVLRDLVAEKLPKLAAHLRALEVDLSLFALSWFLTCFVDVLPHSIYLTIFDAFLYEGNKVLFRFALALFKICEPHVLQCKTIGTVHQCLSKAQEHIIDFKSLAQVAFNELNPFPQKTIETKRQLYLTQLKDTGHCM”, the “soluble on expression in E. coli” value is reported as “not soluble”.
In the case of “MSAEKSSADTAKKTLTIYSTMSTDSERDTFRKLAAAFEKEHSDIHVSLHFPGNDYENMMRVRMAANDLPDLFDTHGWGKIRYGEYTADLRDMKWTQDLDPNLNSILKNKSGKVYAYPINQAKDGLAYNRNILDRYGIAPPETMDDFIKALRTIKEKSKGSIVPFWFAGYDKSSFAQYYDQFATPLLITDPAHNEKKQLINGTFQWSKFTYLSEILKQMQKEKLINIDAVTAKKSQLIELMAQNKIAFTMQGGTLGQDVAQINPNVKVGIIPTPAIHPGDDPIWIGGERYTLAAWKDSPQLKEAKDFIAFMARPANAKQMAEATSLPSGLTNVKADIFYANDYEYYQDVKVEPYFDRLYLPNGMWDVLGTVGQELAADILAPQDISQKLGREYKRLREQSETQGAENNELEHHHHHH”, the “soluble on expression in E. coli” value is reported as “soluble”.
With “MSAEVQESSGKRGKGKQKKMTVRVDFTPMVDMNMLLITFFMLCTTLSKPQTMEISMPSNDKDITEQQKSMVKASQAITLLLGADNKLYYYEGEPNYKDYTSLKETSYGASGLRAVLLQKNAAAVNQVRALKQQKLDLKITDDEYKKKVSEIKSGKNTPTVIIKATDDASYMNLIDALDEMQICNIGKYVITDIAEADEFLIKNYDAKGELSQNLADK” the “soluble on expression in E. coli” value was “not soluble”.
In the case of “MSAFQPTIKRRESTKIYVGNVPIGGDAPIAVQSMTNTRTTDVEATVAQIKSLERVGADIVRVSVPTMDAAEAFKQIKQQVNVPLVADIHFDYRIALKVAEYGVDCLRINPGNIGREDRVRAVVDCARDKNIPIRIGVNAGSLEKDLQEKYGEPTPEALLESALRHVEILDRLNFDQFKVSVKASDVFLAVESYRLLAKAIKQPLHLGITEAGGARAGAVKSAVGLGMLLAEGIGDTLRVSLAADPVEEIKVGFDILKSLRIRSRGINFIACPTCSRQEFDVIGTVNALEQRLEDIITPMDVSIIGCVVNGPGEALVSDLGVTGGNKKSGYYLDGERQKERFDNEDIVNQLEAKIRAKVARQDPKNRII”, the “soluble on expression in E. coli” value is reported as “not soluble”.
